Results on two molecules are retold here after patent US20170306001A1.

In assay [1] the target is VN04-HA, full length HA of A/Vietnam/1203/2004(H5N1) (clade 1) (influenza A virus A/Vietnam/1203/2004(H5N1)). Nature of the assay: cell-based or functional assay.
In assay [2] the target is DL06-HA, full length HA of A/duck/Laos/3295/2006(H5N1) (clade 2.3.4) (influenza A virus A/duck/Laos/3295/2006(H5N1)).
In assay [3] the target is Hatay04-HA, full length HA of A/chicken/Hatay/2004(H5N1) (clade 1) (influenza A virus A/chicken/Hatay/2004(H5N1)).
The target of assay [4] is VN04-HA, full length HA of A/Vietnam/1203/2004(H5N1) (clade 1) (influenza A virus A/Vietnam/1203/2004(H5N1)).
In assay [5] the target is DL06-HA, full length HA of A/duck/Laos/3295/2006(H5N1) (clade 2.3.4) (influenza A virus A/duck/Laos/3295/2006(H5N1)). The assay can be described thus: cell-based or functional assay.
Assay [6] addresses Indo05-HA, full length HA of A/Indonesia/5/2005(H5N1) (clade 2.1) (influenza A virus A/Indonesia/5/2005(H5N1)). The assay can be described thus: cell-based or functional assay.

B1: xi-IgA1-9F4 (antibody, V domains shown)
VH: QVQLQQSEAELARPGASVKMSCKASGFTLTTFTIHWVKQRPGQGLEWIGYINPRSGYTDYNQKFKDNTTLTVDKSSSTAYMQLSSLTSEDSAVFYCARSYYDYDVFDYWGQGTTLTVSS
VL: DVQMTQSPSSLSASLGGKVTITCTARQDINKYIAWYQHKPGKGPRLLIHYTSTLQPGIPSRFSGSGSGTDYSFTISNLEPEDIATYYCLQYDNLVTFGGGTKLELKR
Take B1: in assay [1], the IC50, entry of HA-pseudotyped lentiviral particles into MDCK cells (luciferase) amounted to 100 ng/mL; the fold change of IC50 in the HApp neutralization assay against mouse-9F4 is 10 fold; the inhibition of VN04-HApp entry at 1000 ng/ml is 75%. Moreover, the endpoint titre in assay [2] worked out at 1250 ng/mL. In addition, the endpoint titre in assay [3] came out at 1250 ng/mL. The endpoint titre in assay [4] was found to be 1250 ng/mL.

B2: xi-IgG1-9F4 (antibody, V domains shown)
V domain 1: QQSEAELARPGASVKMSCKASGFTLTTFTIHWVKQRPGQGLEWIGYINPRSGYTDYNQKFKDNTTLTVDKSSSTAYMQLSSLTSEDSAVFYCARSYYDYDVFDYWGQGTTLTV
V domain 2: DVQMTQSPSSLSASLGGKVTITCTARQDINKYIAWYQHKPGKGPRLLIHYTSTLQPGIPSRFSGSGSGTDYSFTISNLEPEDIATYYCLQYDNLVTFGGGTK
For the molecule B2, the IC50, entry of HA-pseudotyped lentiviral particles into MDCK cells (luciferase) in assay [5], in assay [1] and in assay [6] was 10 ng/mL each time. The reduction of HApp entry at the highest concentration tested in assay [5] and in assay [1] was 90% each time.
